In publication PMC1483224:

T1: MutS (Escherichia coli, UniProt P23909 1-853)
T1 sequence: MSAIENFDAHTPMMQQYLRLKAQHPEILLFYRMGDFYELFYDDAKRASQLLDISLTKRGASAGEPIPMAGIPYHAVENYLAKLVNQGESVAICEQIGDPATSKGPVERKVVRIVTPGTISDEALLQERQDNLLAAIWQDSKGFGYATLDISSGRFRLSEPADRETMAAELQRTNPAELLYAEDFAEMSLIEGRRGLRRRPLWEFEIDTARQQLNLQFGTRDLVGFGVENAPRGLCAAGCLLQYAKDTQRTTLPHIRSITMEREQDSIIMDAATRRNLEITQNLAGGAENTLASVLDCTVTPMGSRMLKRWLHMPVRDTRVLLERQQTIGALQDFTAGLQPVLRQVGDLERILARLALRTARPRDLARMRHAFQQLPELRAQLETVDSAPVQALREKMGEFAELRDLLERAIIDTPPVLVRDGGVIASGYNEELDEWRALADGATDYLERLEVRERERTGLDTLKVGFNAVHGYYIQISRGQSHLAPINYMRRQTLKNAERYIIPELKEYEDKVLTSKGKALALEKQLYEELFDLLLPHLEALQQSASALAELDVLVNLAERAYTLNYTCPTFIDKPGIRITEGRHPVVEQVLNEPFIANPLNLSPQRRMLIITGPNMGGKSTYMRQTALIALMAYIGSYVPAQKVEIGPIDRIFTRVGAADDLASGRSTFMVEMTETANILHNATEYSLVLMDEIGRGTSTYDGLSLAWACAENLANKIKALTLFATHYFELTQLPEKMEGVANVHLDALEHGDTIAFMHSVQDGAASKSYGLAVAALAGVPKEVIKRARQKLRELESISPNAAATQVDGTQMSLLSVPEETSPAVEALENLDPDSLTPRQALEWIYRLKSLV

B1: CC heteroduplex (dsDNA)
DNA 1: GACGAGCCGCCCGCTAGCGTCG
DNA 2: CGACGCTAGCGCGCGGCTCGTC
B2: CT heteroduplex (dsDNA)
DNA 1: GACGAGCCGCCCGCTAGCGTCG
DNA 2: CGACGCTAGCGTGCGGCTCGTC
B3: GT heteroduplex (dsDNA)
DNA 1: GACGAGCCGCGCGCTAGCGTCG
DNA 2: CGACGCTAGCGTGCGGCTCGTC

Target: T1, MutS
Experiment: impedance spectroscopy, CV

Row | Binder | binding signal
1 | B1 | 1050 Ohm/cm (Rct calibration slope as printed)
2 | B2 | 1680 Ohm/cm (Rct calibration slope as printed)
3 | B3 | 3380 Ohm/cm (Rct calibration slope as printed)
